Experimental data from patent publication US20110262436A1, “TREATMENT METHOD” (Genentech, Inc., priority 2008, published 2011).
“Also recorded” adds a separate entry of the source.

What was measured:
[1] = Phase I dose-escalation study: pharmacokinetics; type: in vivo, humans; details: patients
Description: Study design. There are two stages to this study, a dose-escalation stage and an expansion stage.
Study treatment. […] Dose levels tested in Phase I were: 1 mg/kg, 4 mg/kg, 10 mg/kg, 20 mg/kg, and 30 mg/kg.
MetMAb was administered as an IV infusion. […] The MetMAb infusion was slowed or interrupted for patients experiencing infusion-associated symptoms.
Pharmacokinetics of the study drug were determined by serially monitoring of serum samples for MetMAb throughout the study.

c-met [2] = biological target: c-met (Mus musculus, UniProt P16056); assay: Binding to c-met in mice
Sequence of c-met (Mus musculus, UniProt P16056) (P16056 25-1379): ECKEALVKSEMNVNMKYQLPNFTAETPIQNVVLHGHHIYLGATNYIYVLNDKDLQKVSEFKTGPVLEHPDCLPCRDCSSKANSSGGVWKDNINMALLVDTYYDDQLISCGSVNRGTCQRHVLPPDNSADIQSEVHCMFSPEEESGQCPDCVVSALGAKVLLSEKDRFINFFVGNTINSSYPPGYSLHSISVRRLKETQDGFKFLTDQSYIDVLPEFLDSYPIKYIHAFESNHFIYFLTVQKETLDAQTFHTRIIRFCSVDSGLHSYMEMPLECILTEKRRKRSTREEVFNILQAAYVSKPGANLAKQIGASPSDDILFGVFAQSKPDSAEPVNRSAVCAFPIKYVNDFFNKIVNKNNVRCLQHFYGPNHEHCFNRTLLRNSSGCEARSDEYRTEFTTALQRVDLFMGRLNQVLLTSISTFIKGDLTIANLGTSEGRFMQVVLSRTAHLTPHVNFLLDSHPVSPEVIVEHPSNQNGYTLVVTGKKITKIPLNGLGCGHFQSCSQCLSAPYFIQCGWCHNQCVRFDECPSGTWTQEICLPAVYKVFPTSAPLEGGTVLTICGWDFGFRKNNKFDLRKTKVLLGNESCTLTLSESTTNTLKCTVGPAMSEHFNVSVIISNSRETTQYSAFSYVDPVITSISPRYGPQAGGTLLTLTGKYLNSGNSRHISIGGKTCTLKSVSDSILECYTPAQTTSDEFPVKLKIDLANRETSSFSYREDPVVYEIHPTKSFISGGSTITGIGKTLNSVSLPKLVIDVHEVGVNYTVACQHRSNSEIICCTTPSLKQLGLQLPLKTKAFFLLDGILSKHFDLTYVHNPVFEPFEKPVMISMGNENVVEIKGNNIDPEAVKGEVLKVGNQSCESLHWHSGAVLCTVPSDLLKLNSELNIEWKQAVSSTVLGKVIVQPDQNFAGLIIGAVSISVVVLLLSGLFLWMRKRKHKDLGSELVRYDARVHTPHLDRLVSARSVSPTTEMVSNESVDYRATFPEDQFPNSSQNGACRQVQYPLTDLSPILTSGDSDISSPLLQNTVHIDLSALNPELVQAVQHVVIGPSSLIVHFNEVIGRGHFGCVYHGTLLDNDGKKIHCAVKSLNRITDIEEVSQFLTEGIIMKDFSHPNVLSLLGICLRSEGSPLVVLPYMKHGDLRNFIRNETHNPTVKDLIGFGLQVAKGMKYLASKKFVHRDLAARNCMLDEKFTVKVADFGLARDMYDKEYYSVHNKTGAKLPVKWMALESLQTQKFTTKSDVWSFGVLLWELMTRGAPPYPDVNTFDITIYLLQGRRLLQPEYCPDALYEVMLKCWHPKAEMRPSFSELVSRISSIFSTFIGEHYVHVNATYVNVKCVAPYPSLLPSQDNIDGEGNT

[3] = system: KP4 human pancreatic ductal cell carcinoma cells; assay: Dose fractionation study in KP4 xenograft mice; type: in vivo; details: total 2.5, 7.5 or 30 mg/kg as Q1W, Q2W or Q3W
Description: For example, a 30 mg/kg total dose was given as 10 mg/kg Q1W, 15 mg/kg Q2W, or 30 mg/kg Q3W.
In all cases, tumors were measured with calipers throughout the study.

[4] = Safety factor calculation (cynomolgus monkey vs proposed human starting dose); parameters: species or system cynomolgus monkeys; details: Planned Phase Ia starting dose 1 mg/kg
Description: Safety Factor Calculation. Safety factor was calculated for Dose, AUC, Cmax as the ratio at the highest non-severely toxic dose (HNSTD) observed in the single or repeat-dose safety study to the proposed phase I starting dose. The equations are:
Safety factor (SF)Dose=DoseCyno/DoseHuman
SFCmax=(Cmax-Cyno)/(Cmax-Human)
For body surface area calculation: The body weight to surface area index is 12 kg/m^2 for cynomolgus monkeys and 37.5 kg/m^2 for humans.

[5] = PK studies in mice, rats, and cynomolgus monkeys (stated across species); type: in vivo; details: cynomolgus monkeys
Description: (§1) PK studies. PK studies were conducted in mice, rats, and cynomolgus monkeys.
(§2) Mouse, Rat, and Cynomolgus Monkey PK data analysis. […] PK parameters were estimated using WinNonlin Enterprise Version 5.0.1 (Pharsight Corp., Mountain View, Calif.). The nominal dose administered for each group was used for modeling. Since a single concentration-time profile for mice was determined for each group, one estimate of each PK parameter was obtained and is reported, along with the standard error (SE) of the fit of each PK parameter. For rats and monkeys, PK parameters are reported as mean (+/−SD).
(§3) For IV administrations, a two-compartment elimination model with IV bolus input and first-order elimination was used to describe the observed data (WinNonlin Model 7). Concentrations were weighted using iterative reweighting (1/ŷ^2) and the Nelder-Mead minimization algorithm. The following equation was used to calculate concentration over time in Model 7: […]

HGF = assay: Phase I study: serum HGF levels by ELISA; type: in vivo, humans
Description: Pre- and post-dose serum is collected for evaluation of pharmacodynamic (PD) biomarkers that could be affected by inhibition of Met signaling. In addition, archival tissue is obtained for exploratory diagnostic assessments.
Serum HGF levels were determined using ELISA. […] For patient 12007, HGF expression increased to baseline levels in subsequent cycles. For patient 11009, HGF levels decreased by 70% post drug treatment and remained low for the duration of the study.

[6] = PK study, single IV bolus dose in nude mice; type: in vivo
Description: as §1
The expected serum concentration at the time of serum sample collection was estimated based on PK parameters determined in the PK study in non-tumor bearing mice (described above). […] These PK parameters were used to estimate serum concentration by WinNonlin Enterprise Version 5.0.1 (Pharsight Corp., Mountain View, Calif.) for doses tested in IV infusion study.
(§4) Pharmacokinetic Assays for MetMAb in Mouse Serum and Rat Serum. […] A direct ELISA assay was developed for quantification of MetMAb in mouse serum and Sprague-Dawley rat serum. Plates were coated with human c-Met-Fc fusion protein to which samples, standards, and dosing solutions were added. Goat anti-human F(Ab′)2 horseradish peroxidase (HRP) was used for detection. Tetrapethyl benzidine (TMB) peroxidase substrate was added for signal development. The substrate reaction was stopped with phosphoric acid. The plates were read at an absorbance of 450 nm. […] The lower limit of quantitation in the assay was 0.47 ng/mL and the upper limit of quantification was 30 ng/mL. The minimum dilution for nude mouse serum samples was 1/10, resulting in a minimum quantifiable concentration of 4.7 ng/mL, with an indefinite upper limit. The minimum dilution for rat serum samples was 1/50, resulting in a minimum quantifiable concentration of 23.5 ng/mL, with an indefinite upper limit.
as §2, §3

[7] = system: locally advanced or metastatic solid tumors; assay: Phase I study: anti-tumor activity (RECIST); type: in vivo, humans
Description: The following activity outcome measures are assessed: objective response, defined as a complete or partial response confirmed≧4 weeks after initial documentation; duration of objective response; and progression-free survival. Objective response and disease progression will be determined using RECIST.
Patient selection criteria.

c-met [8] = assay: Binding to c-met in cynomolgus monkeys
[9] = PK study, single IV dose in cynomolgus monkeys; type: in vivo
Description: as §1
Pharmacokinetic Assay for MetMAb in Cynomolgus Monkey Serum. A direct ELISA was developed to quantitate MetMAb in cynomolgus monkey serum. Plates were coated with a His-tagged c-met extracellular domain fragment, and diluted samples, standards, and controls were added to the coated plates. F(Ab′)2 fragmented, goat anti-human IgG Fc antibodies conjugated to HRP were added for detection. TMB peroxidase was stopped with […]. The plates were read at an absorbance of 450 nm and 620/630 nm.
The lower limit of quantification of the assay was 1.0 ng/ml and the upper limit of quantification was 32.0 ng/ml. The minimum dilution for neat cynomolgus monkey serum samples was 1/50, resulting in a minimum quantifiable concentration of 50 ng/ml, with an indefinite upper limit.
as §2, §3

[10] = PK study, single IV bolus dose in Sprague-Dawley rats; type: in vivo
Description: as §1, §4, §2, §3

[11] = Athymic nude mouse, single IV dose
[12] = non-tumor-bearing mice, two-compartmental model

## MetMAb: recombinant, humanized, monovalent (one-armed) monoclonal antibody directed against human c-met
[1]
  Inter-individual variability of serum concentrations at each dose level: less than 30%
[1]; 1 mg/kg dose
  Clearance compared to the other dose groups: slightly faster clearance
[1]; IV Q3W
  Half-life: approximately 10 days
[1]; dose range 4 to 30 mg/kg
  PK linearity: linear pharmacokinetics
c-met [2]
  Binding to c-met: does not bind to c-met
[3]
  Efficacy at the same dose level with different dose regimens: similar
[4]
  Multiple Dose Safety Factor: Body Surface Area: 105
  Multiple Dose Safety Factor: Total Dose: 325
  Single Dose Safety Factor: Body Surface Area: 32
  Single Dose Safety Factor: Single Dose: 100
[5]
  Beta half-life: 96 to 120 h
HGF; 24 h post drug treatment
  Change in serum HGF expression, two patients with highest baseline HGF: significant decrease; also recorded: significantly decreased
HGF; Phase I patients
  Change in serum HGF expression with MetMAb treatment, in general: little or no increase
HGF; remained low for the duration of the study
  Decrease of serum HGF levels post drug treatment, patient 11009: 70%
[6]; [11]
  Terminal Half-Life: 113 h
  V1: 0.0488 L/kg
  Vss: 0.14 L/kg
[6]; non-tumor-bearing mice
  Serum disposition: biphasic and exhibited dose-proportionality
[6]; [12]
  CLd (inter-compartmental clearance): 190 mL/day/kg
  V2 (apparent peripheral volume of distribution): 0.0907 L/kg
[7]; 21 patients, dose escalation stage
  Progressive disease (patients): Three
[7]; gastric adenocarcinoma with metastatic liver lesion, CT Jun. 13, 2008, confirmed July 2008
  Response of patient 11009: complete response
[7]; gastric cancer patient, 20 mg/kg cohort
  Complete, objective response (patients): one
c-met [8]
  Binding to c-met: binds to c-met
[9]; Cynomolgus monkey
  Terminal Half-Life: 97.2 h
  V1: 0.0338 L/kg
  Vss: 0.0703 L/kg
[9]; Cynomolgus monkey (n = 4), linear dose range
  CL: 13.4 mL/day/kg
[10]; Sprague Dawley rat
  Terminal Half-Life: 124 h
  V1: 0.0446 L/kg
  Vss: 0.107 L/kg
[10]; Sprague Dawley rat (n = 6)
  CL: 18.8 mL/day/kg
